The values below are quoted from earlier work in publication PMC3325482.

This series deals with Cd200R (Rattus norvegicus) (UniProt Q9ES58).
Sequence of UniProt Q9ES58 (Q9ES58 24-239): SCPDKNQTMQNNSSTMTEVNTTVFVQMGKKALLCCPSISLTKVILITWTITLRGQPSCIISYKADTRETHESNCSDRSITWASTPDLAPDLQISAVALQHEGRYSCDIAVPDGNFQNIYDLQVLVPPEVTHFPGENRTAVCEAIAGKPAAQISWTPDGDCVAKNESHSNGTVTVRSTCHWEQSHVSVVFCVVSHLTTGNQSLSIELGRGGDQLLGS

Consider Cd200 (from UniProt P04218), for which the Kd was 2000 nM.

By Kd is commonly meant the free concentration of one partner at which half of the binding sites on the other are occupied at equilibrium, for simple one-to-one binding.
